Results taken from publication PMC8786865 (Nature Communications, 2022).
Where “and” joins values, the source holds several entries; their conditions need not be identical. Identical values can stand only once. Like-named read-outs stand apart in the source and are kept apart here.

Legend:
[1] = target: T1, SARS-CoV-2 spike receptor-binding domain (RBD) (SARS-CoV-2, Wuhan-Hu-1, UniProt P0DTC2)
[2] = target: T1, SARS-CoV-2 spike receptor-binding …; assay: SPR; array SPR (Carterra LSA), HC200M chip; IgG captured on immobilised anti-human Fc; antigen as analyte in a 7-point series, RBD 300 nM to 411 pM or trimer 100 nM to 137 pM, in 1x HBSTE with 0.5 mg/mL BSA; association 5 min, dissociation 11 min; one-site model; constants for the trimer are called avidities; settings: both partners purified
[3] = target: SARS-CoV-2 spike protein receptor-binding domain (RBD) (SARS-CoV-2, UniProt P0DTC2); assay: cell-based or functional assay
[4] = target: T2, SARS-CoV-2 spike receptor-binding domain (SARS-CoV-2, Wuhan-Hu-1, UniProt P0DTC2); assay: SPR; Carterra LSA array, HC200M chip; IgG captured on immobilised anti-human Fc; RBD as analyte, 7-point dilution series 300 nM to 411 pM in 1x HBSTE with 0.5 mg/mL BSA; association 5 min, dissociation 11 min; one-site binding model; two independent measurements; settings: both partners purified
T2 construct: also called RBD; SARS-CoV-2 RBD

Binder	binding result [1]	further results
E5 (antibody, V domains shown) VH: EVQLVQSGAEVKKPGASVKVSCKVSGYSFTDHSIHWVRQAPGKGLEWMGGINPYTGDTIYAQKFQGRVTMTEDTSTDTAYMELSSLKSEDTAVYYCAKDGWGSLLNGIAVAGLDYWGQGTLVTVSS VL: DIQMTQSPSSVSASVGDRVTITCRASQDISTYLAWYQQKPGKAPKLLIYASSNLASGVPSRFSGSGSGTDFTLTISSLQPEDFANYYCHQYATYPWGFGGGTKVEIK	binds	–
G8 (antibody, V domains shown) VH: EVQLVESGAEVKKPGASVKVSCKVSGYSFTDHSIHWVRQAPGKGLEWMGGINPYTGDTIYAQKFQGRVTMTEDTSTDTAYMELSSLKSEDTAVYYCARDGWGSLLNGIAVAGLDYWGQGTLVTVSS VL: DIQMTQSPSSVSASVGDRVTITCRASQSIGSFLAWYQQKPGKAPKLLIYASSNLASGVPSRFSGSGSGTDFTLTISSLQPEDFANYYCHQYATYPWTFGGGTKVEIK	binds	–
A2 (antibody, V domains shown) VH: QVQLVESGAEVKKPGASVKVSCKVSGYSFTDHSIHWVRQAPGKGLEWMGGINPYTGDTIYAQKFQGRVTMTEDTSTDTAYMELSSLKSEDTAVYYCARDGYCSGGSCYSFSGYGMDVWGQGTTVTVS VL: DIQMTQSPSSVSASVGDRVTITCRASQDIGNHLAWYQQKPGKAPKLLIYASSNLASGVPSRFSGSGSGTDFTLTISSLQPEDFANYYCHQYTTYPWTFGGGTKVEIK	binds	–
H7 (antibody, V domains shown) VH: EVQLVQSGAEVKKPGASVKVSCKVSGYSFTDHSIHWVRQAPGKGLEWMGGINPYTGDTIYAQKFQGRVTMTEDTSTDTAYMELSSLKSEDTAVYYCARDGYDFWSGSYGMDVWGQGAQVTVS VL: DIQMTQSPSSVSASVGDRVTITCRASQDIGNHLAWYQQKPGKAPKLLIYGVSERPSGVPSRFSGSGSGTDFTLTISSLQPEDFANYYCHQYATYPWTFGDGTKVEIK	binds	–
G9 (antibody, V domains shown) VH: QVQLVQSGAEVKKPGASVKVSCKVSGYSFTDHSIHWVRQAPGKGLEWMGGINPYTGDTIYAQKFQGRVTMTEDTSTDTAYMELSSLKSEDTAVYYCARDGYGDYRGLYGMDVWGRGTTVTVSS VL: DIQMTQSPSSVSASVGDRVTITCRASQDIGNHLAWYQQKPGKAPKLLIYASSNLASGVPSRFSGSGSGTDFTLTISSLQPEDFANYYCHQYATYPWTFGGGTKVEIK	binds	–
H5 (antibody, V domains shown) VH: EVQLVQSGAEVKKPGASVKVSCKVSGYSFTDHSIHWVHQAPGKGLEWMGGINPYTGDTIYAQKFQGRVTMTEDTSTDTAYMELSSLKSEDTAVYYCARDGYYGSGTYYYYGMDVWGQGTTVTVSS VL: DIQMTQSPSSVSASVGDRVTITCRASQSISTYLAWYQQKPGKAPKLLIYDASNRATGVPSRFSGSGSGTDFTLTISSLQPEDFANYYCLQYHNYPWTFGGGTKVEIK	binds	–
E4 (antibody, V domains shown) VH: QVQLVQSGAEVKKPGASVKVSCKVSGYSFTDHSIHWVRQAPGKGLEWMGGINPYTGDTIYAQKFQGRVTMTEDTSTDTAYMELSSLKSEDTAVYYCARDGYDFWSGSYGMDVWGQGTLVTVSS VL: DIQMTQSPSSVSASVGDRVTITCRASQDIGNHLAWYQQKPGKAPKLLIYASSNLASGVPSRFSGSGSGTDFTLTISSLQPEDFANYYCHQYATYPWTFGGGTKVEIK	binds	–
H9 (antibody, V domains shown) VH: EVQLVESGAEVKKPGASVKVSCKVSGYSFTDHSIHWVRQAPGKGLEWMGGINPYTGDTIYAQKFQGRVTMTEDTSTDTAYMELSSLKSEDTAVYYCARDAYSGSYPYYYYGMDVWGQGTTVTVSS VL: DIQMTQSPSSVSASVGDRVTITCRASQNIDTFLAWYQQKPGKAPKLLIYASSNLASGVPSRFSGSGSGTDFTLTISSLQPEDFANYYCHQYATYPWTFGDGTKVEIK	binds	–
selected anti-SARS-CoV-2 spike antibody B2 (antibody, V domains shown) VH: QVQLVQSGAEVKKPGASVKVSCKVSGYSFTDHSIHWVRQAPGKGLEWMGGINPYTGDTIYAQKFQGRVTMTEDTSTDTAYMELSSLKSEDTAVYYCARDAYSGSYPYYYYGMDVWGQGTTVTVSS VL: DIQMTQSPSSVSASVGDRVTITCRASEGISNYLAWYQQKPGKAPKLLIYGTSDRASGIPSRFSGSGSGTDFTLTISSLQPEDFANYYCQQYSAFPWTFGGGTKVEIK	–	binding result [2]: binds
#41 (antibody, V domains shown) VH: QVQLVQSGAEVKKPGASVKVSCKVSGYTSPATIHWVRQAPGKGLEWMGGISPYKGDTIYAQKFQGRVTMTEDTSTDTAYMELSSLKSEDTAVYYCAKDSYYYDSSGSGLGGGFDYWGQGTLVTVSS VL: DIQMTQSPSSVSASVGDRVTITCRASRDISSYLAWYQQKPGKAPKLLIYGASTRASGVPSRFSGSGSGTDFTLTISSLQPEDFANYYCLQYSIYPWTFGGGTKVEIK [#41, listing 1 of 2 here]	–	SARS-CoV-2 pseudovirus IC50 (neutralisation, HeLa-hACE2 cells); pair blocked: ACE2 with RBD [3]: 3.7 ng/mL
#41 (antibody, V domains shown) VH: QVQLVQSGAEVKKPGASVKVSCKVSGYTSPATIHWVRQAPGKGLEWMGGISPYKGDTIYAQKFQGRVTMTEDTSTDTAYMELSSLKSEDTAVYYCAKDSYYYDSSGSGLGGGFDYWGQGTLVTVSS VL: DIQMTQSPSSVSASVGDRVTITCRASRDISSYLAWYQQKPGKAPKLLIYGASTRASGVPSRFSGSGSGTDFTLTISSLQPEDFANYYCLQYSIYPWTFGGGTKVEIK [#41, listing 2 of 2 here]	–	Kd [4]: 0.257 nM and 0.333 nM
